In the experiment the target is V5–FoTO1 (Taxus media). Put plainly: co-IP; lysate of N. benthamiana leaves co-expressing both proteins; anti-V5 antibody on protein G magnetic beads, blot with anti-HA-HRP; lysates incubated 15 min with no compound, 45 μM taxadiene or a mock terpene (caryophyllene); extraction buffer 50 mM Tris pH 7.5, 150 mM NaCl, 0.6% NP-40, 0.6% CHAPS, 1 mM β-mercaptoethanol.

T5αH–HA, sequence (Q6WG30 whole entry): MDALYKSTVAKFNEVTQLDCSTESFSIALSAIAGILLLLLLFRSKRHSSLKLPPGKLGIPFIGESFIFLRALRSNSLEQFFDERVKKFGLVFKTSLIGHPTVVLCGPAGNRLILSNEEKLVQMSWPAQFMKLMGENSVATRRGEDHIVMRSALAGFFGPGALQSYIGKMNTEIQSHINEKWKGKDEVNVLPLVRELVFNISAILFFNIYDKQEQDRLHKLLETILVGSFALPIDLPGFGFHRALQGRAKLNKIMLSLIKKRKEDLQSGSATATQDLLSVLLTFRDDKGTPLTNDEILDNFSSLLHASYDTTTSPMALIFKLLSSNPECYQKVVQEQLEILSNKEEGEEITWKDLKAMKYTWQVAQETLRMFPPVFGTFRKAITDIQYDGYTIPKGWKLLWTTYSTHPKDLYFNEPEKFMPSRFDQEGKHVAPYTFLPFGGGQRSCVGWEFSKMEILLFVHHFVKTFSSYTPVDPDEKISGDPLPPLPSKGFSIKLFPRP

In turn, “T5αH–HA (from UniProt Q6WG30 1-499) (enzyme)” yielded a fold increase of the co-IP signal with 45 μM taxadiene of 4 fold.

The values are drawn from article PMC12240809.
